Experimental data as given in US20180291082A1 (IMMATICS BIOTECHNOLOGIES, published 2018).

B1: AEAVLKTLQEL (peptide)
peptide: AEAVLKTLQEL
B2: TEKEMIQKL (peptide)
peptide: TEKEMIQKL
B3: AENAEYLRV (peptide)
peptide: AENAEYLRV
B4: TEATMTFKY (peptide)
peptide: TEATMTFKY
B5: AEHDAVRNAL (peptide)
peptide: AEHDAVRNAL
B6: YEVDTVLRY (peptide)
peptide: YEVDTVLRY
B7: QEVLLQTFL (peptide)
peptide: QEVLLQTFL
B8: GEELGFASL (peptide)
peptide: GEELGFASL
B9: LQEEKVPAIY (peptide)
peptide: LQEEKVPAIY
B10: GEHTSKATL (peptide)
peptide: GEHTSKATL
B11: KESQLPTVM (peptide)
peptide: KESQLPTVM
B12: AEQPDGLIL (peptide)
peptide: AEQPDGLIL
B13: SENIVIQVY (peptide)
peptide: SENIVIQVY
B14: SEVPVARVW (peptide)
peptide: SEVPVARVW
B15: EEAKQVLFL (peptide)
peptide: EEAKQVLFL
B16: NEINEKIAPSF (peptide)
peptide: NEINEKIAPSF
B17: SEPINIIDAL (peptide)
peptide: SEPINIIDAL
B18: KEFNLQNMGL (peptide)
peptide: KEFNLQNMGL
B19: SEAFPSRAL (peptide)
peptide: SEAFPSRAL
B20: AEQTGTWKL (peptide)
peptide: AEQTGTWKL
B21: TTMDQKSLW (peptide)
peptide: TTMDQKSLW
B22: AEERAEAKKKF (peptide)
peptide: AEERAEAKKKF
B23: AEETCAPSV (peptide)
peptide: AEETCAPSV
B24: SESAVFHGF (peptide)
peptide: SESAVFHGF
B25: NEISTFHNL (peptide)
peptide: NEISTFHNL
B26: FELPTGAGL (peptide)
peptide: FELPTGAGL
B27: EELLHGQLF (peptide)
peptide: EELLHGQLF
B28: KEITGFLLI (peptide)
peptide: KEITGFLLI
B29: GEATLQRIY (peptide)
peptide: GEATLQRIY
B30: KENFAGEATL (peptide)
peptide: KENFAGEATL

These binders were tested against T1, HLA-B*44:02 (human) (assay: UV-ligand exchange, anti-b2m ELISA; exchange yield grade (+ >10%, ++ >20%, +++ >50, ++++ >75%)).
T1 construct: Peptide-receptive MHC monomer made by UV cleavage of a UV-sensitive peptide
Text: Candidate peptides for T cell based therapies according to the present invention were further tested for their MHC binding capacity (affinity). The individual peptide-MHC complexes were produced by UV-ligand exchange, where a UV-sensitive peptide is cleaved upon UV-irradiation, and exchanged with the peptide of interest as analyzed. Only peptide candidates that can effectively bind and stabilize the peptide-receptive MHC molecules prevent dissociation of the MHC complexes. To determine the yield of the exchange reaction, an ELISA was performed based on the detection of the light chain (β2m) of stabilized MHC complexes. The assay was performed as generally described in Rodenko et al. (Rodenko et al., 2006).
96 well MAXISorp plates (NUNC) were coated over night with 2 ug/ml streptavidin in PBS at room temperature, washed 4× and blocked for 1 h at 37° C. in 2% BSA containing blocking buffer. Refolded HLA-A*02:01/MLA-001 monomers served as standards, covering the range of 15-500 ng/ml. Peptide-MHC monomers of the UV-exchange reaction were diluted 100-fold in blocking buffer. Samples were incubated for 1 h at 37° C., washed four times, incubated with 2 ug/ml HRP conjugated anti-β2m for 1 h at 37° C., washed again and detected with TMB solution that is stopped with […]. Absorption was measured at 450 nm. Candidate peptides that show a high exchange yield (preferably higher than 50%, most preferred higher than 75%) are generally preferred for a generation and production of antibodies or fragments thereof, and/or T cell receptors or fragments thereof, as they show sufficient avidity to the MHC molecules and prevent dissociation of the MHC complexes.

peptide exchange yield	Binder
50 to 75%	B1
20 to 50%	B2
20 to 50%	B3
50 to 75%	B4
50 to 75%	B5
20 to 50%	B6
> 75%	B7
20 to 50%	B8
10 to 20%	B9
20 to 50%	B10
20 to 50%	B11
20 to 50%	B12
20 to 50%	B13
> 75%	B14
20 to 50%	B15
50 to 75%	B16
20 to 50%	B17
50 to 75%	B18
50 to 75%	B19
20 to 50%	B20
10 to 20%	B21
20 to 50%	B22
20 to 50%	B23
50 to 75%	B24
50 to 75%	B25
20 to 50%	B26
20 to 50%	B27
50 to 75%	B28
10 to 20%	B29
20 to 50%	B30
